From patent publication US20090220470A1 (CENTRO DE INVESTIGACION COOPERATIVA EN BIOCIENCIAS CIC …, published 2009)
Where no end group is shown, it is not given here.

What was measured:
[1] = target: T1, Mono-ubiquitin (Sigma Aldrich) (UniProt P0CG48 1-76); test: SPR (BiaCore 3000), captured via GST on anti-GST chip, mono-ubiquitin injected, steady state
Excerpt: (§1) (FIG. 4C) Mono-ubiquitin interaction with single and tandem UBA domains from hHR23A and ubiquilin1 was monitored by real-time surface plasmon resonance (SPR).
All injections were done as randomized duplicates, and each experiment was repeated in triplicate. All the experimental profiles were double referenced using the Scrubber 2.0 software (BioLogic Software), i.e. both the signals from a His6-GST-SV5 reference surface and from blank experiments (running buffer instead of protein) were subtracted. The steady-state responses (Req) were estimated by averaging the signal monitored during the last 15 seconds of each injection. The Req values were plotted against the concentration (C) of mono or tetra-ubiquitin and fitted using the following equation:

[2] = target: T1, Mono-ubiquitin (Sigma Aldrich); test: SPR (Biacore), GST fusion captured on anti-GST antibody chip (150-220 RU), mono-ubiquitin injected in a 2-fold dilution series, steady-state fit
Description: as §1
To measure real-time interactions, all experiments were performed with a BiaCore 3000 instrument, at 25° C., using HBS EP (0.01 B M HEPES pH 7.4, 0.15 M NaCl, 3 mM EDTA, 0.005% surfactant P20) (BiaCore) as running buffer. Anti GST antibody (BiaCore) was covalently immobilized on a CM5 chip (carboxy methylated dextran) from BiaCore with a density of approximately 9000 resonance units (RU≈pg·mm-2), using standard amino-coupling techniques and reagents (NHS, EDC, ethanolamine) from BiaCore. Purified GST-tagged polypeptide comprising ubiquitin binding domains of p62 protein and GST were diluted in running buffer and captured to similar levels in different flow cells. Single and tandem GST-fused UBA domains were captured on the sensor chip at low (30-55 RU) and high (130-220 RU) densities.
All injections were done as randomized duplicates, and each experiment was repeated in triplicate. […] The steady-state responses (Req) were estimated by averaging the signal monitored during the last 15 seconds of each injection.

binding stoichiometry (molar ratio ubiquitin:UBA) [1]: 1 ubiquitin per UBA
Kd [2]: 41.3 µM
B1: Ubiquilin1 UBA (single UBA domain, GST-fused) (other)
chain: VNPQLQNPEVRFQQQLEQLSAMGFLNREANLQALIATGGDINAAIERLLGSQPS
modifications: not fully specified (C-terminus); also: GST-fused, PreScission protease site and His6 tag, construct limits not given here
notes: not shown: glutathione-S-transferase (GST) encoded by the pGEX-6P1 vector (Amersham); PreScission protease site and His6 tag with vector linker residues
